Test results published in patent US20170182124A1, “FGF21 Derivatives and Uses Thereof” (Novo Nordisk A/S, priority 2014, published 2017).
Where two headings read alike, the source gives them in different places. Marks after values point to notes of the source that are not given here.

Key:
[1] = pig, in vivo, iv
Protocol: (§1) The purpose of this study was to determine the protraction in vivo of the FGF21 derivatives after i.v. administration to mini pigs and mice, i.e. the prolongation of their time in the body and thereby their time of action. This was done in a pharmacokinetic (PK) study, where the terminal half-life of the analogue in question was determined. By terminal half-life is meant the time it takes to halve a certain plasma concentration in the terminal elimination phase.
(§2) Female Gottingen mini pigs were obtained from Ellegaard Gottingen Minipigs (Dalmose, Denmark) approximately 7-14 months of age and weighing approximately 16-35 kg were used in the studies. The mini pigs were housed either individually (pigs with permanent catheters) or in a group and fed restrictedly once or twice daily with SDS mini pig diet (Special Diets Services, Essex, UK).
(§3) After at least 2 weeks of acclimatisation two permanent central venous catheters were implanted in vena cava caudalis or cranialis in each animal. The animals were allowed 1 week recovery after the surgery, and were then used for repeated pharmacokinetic studies with a suitable wash-out period between successive dosing.
(§4) Blood samples (for example 0.8 ml) were collected in EDTA (8 mM) coated tubes and then centrifuged at 4° C. and 1942G for 10 minutes. Blood samples were collected to adequately cover the full plasma concentration-time profile of the API. In example blood samples were collected at t=predose, 0.0833, 0.25, 0.5, 0.75, 1, 1.5, 2, 3, 4, 6, 8, 10, 24, 30, 48, 72, 96, 120, 144, 168, 192, 216, 240, 264 hours after dose.
(§5) Plasma was pipetted into Micronic tubes on dry ice, and kept at −20° C. until analysed for plasma concentration of the respective FGF-1 analogue using ELISA. Individual plasma concentration-time profiles were analyzed by a non-compartmental pharmacokinetic method in Phoenix v. 6.3 (Pharsight Inc., Mountain View, Calif., USA), or other relevant software for PK analysis, and the resulting terminal half-lives (harmonic mean) determined.

3T3-L1 adipocytes = 3T3-L1 adipocytes (Mus musculus, UniProt P16092+Q99N32); assay: Glucose uptake in 3T3-L1 adipocytes; assay type: cell-based; settings: stimulated 20 hours, 3H-deoxy-glucose
Sequence of 3T3-L1 adipocytes (Q99N32 whole entry): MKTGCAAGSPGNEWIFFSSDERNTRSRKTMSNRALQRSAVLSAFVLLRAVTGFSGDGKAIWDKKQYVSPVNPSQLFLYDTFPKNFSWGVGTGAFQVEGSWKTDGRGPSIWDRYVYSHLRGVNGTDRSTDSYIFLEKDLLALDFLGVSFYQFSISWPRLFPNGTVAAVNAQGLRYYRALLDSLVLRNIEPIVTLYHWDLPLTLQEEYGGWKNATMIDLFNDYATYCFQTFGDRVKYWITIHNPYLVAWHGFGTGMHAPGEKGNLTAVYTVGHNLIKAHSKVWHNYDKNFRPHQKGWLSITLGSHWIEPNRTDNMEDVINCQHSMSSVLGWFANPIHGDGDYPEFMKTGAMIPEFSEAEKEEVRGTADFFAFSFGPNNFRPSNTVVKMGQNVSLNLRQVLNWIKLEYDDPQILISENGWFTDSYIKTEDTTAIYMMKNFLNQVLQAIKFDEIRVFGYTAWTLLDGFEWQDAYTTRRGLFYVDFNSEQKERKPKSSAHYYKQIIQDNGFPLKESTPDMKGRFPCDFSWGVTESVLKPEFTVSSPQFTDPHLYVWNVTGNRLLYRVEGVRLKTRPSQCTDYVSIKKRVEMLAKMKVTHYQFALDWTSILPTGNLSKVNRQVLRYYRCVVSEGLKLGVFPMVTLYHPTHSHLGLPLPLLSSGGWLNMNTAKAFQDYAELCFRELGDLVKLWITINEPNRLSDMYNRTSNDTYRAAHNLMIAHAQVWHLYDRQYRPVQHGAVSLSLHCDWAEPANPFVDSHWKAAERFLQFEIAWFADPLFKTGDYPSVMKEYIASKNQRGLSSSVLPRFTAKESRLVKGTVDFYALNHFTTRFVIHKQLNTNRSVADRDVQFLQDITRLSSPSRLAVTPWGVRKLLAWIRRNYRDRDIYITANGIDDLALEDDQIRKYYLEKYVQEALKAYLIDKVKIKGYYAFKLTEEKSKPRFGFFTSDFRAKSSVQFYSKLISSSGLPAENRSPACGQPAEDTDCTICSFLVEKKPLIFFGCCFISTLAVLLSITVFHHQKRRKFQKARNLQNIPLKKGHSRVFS
Sequence of 3T3-L1 adipocytes (P16092 22-822): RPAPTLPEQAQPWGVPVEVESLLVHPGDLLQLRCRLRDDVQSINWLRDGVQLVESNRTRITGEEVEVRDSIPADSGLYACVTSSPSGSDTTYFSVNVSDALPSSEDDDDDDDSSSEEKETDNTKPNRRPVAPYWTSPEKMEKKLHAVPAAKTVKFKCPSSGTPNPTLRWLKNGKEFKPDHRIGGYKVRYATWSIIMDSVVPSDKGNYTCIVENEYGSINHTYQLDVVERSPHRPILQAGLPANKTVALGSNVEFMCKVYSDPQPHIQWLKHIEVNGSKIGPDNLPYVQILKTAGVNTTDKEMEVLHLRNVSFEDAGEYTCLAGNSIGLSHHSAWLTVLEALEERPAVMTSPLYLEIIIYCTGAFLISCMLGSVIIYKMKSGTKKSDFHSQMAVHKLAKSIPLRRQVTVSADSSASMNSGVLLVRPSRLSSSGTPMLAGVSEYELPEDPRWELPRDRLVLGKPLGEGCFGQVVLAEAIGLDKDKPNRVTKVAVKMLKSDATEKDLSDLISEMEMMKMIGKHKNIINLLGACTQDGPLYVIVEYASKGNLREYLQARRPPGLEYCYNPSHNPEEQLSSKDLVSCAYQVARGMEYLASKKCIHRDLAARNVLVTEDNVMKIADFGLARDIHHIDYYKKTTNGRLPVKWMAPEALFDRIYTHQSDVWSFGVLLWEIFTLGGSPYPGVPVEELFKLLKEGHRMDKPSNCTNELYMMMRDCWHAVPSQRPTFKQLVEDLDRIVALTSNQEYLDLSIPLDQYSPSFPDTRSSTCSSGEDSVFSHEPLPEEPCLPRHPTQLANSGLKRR
Method in brief: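 Differentiated 3T3-L1 adipocytes (days 7-9 after troglitazone/IBMX/dexamethasone/insulin induction; express FGFR1c and βKL) stimulated with FGF21 analogues (0-300 nM) for 20 h. 3H-deoxy-glucose uptake over 1 h measured by scintillation counting after Triton lysis; EC50 and Emax derived.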

[2] = mouse, in vivo, iv, 20 mg/kg
Protocol: (§6) This was done in a pharmacokinetic (PK) study, where the terminal half-life of the analogue in question was determined. By terminal half-life is meant the time it takes to halve a certain plasma concentration in the terminal elimination phase.
(§7) The pharmacokinetic profile of FGF21 analogues was tested in normal lean C57b1 mice, n =2-3 (approximately 30 grams). FGF21 compounds were dosed as a single intravenous dose of 20 mg/kg (approximately 5 ml/kg).
(§8) The plasma levels of the FGF21 compounds were determined using Fibroblast Growth Factor-21 Human ELISA (available from BioVendor, catalogue no. RD191108200R). The PC based software, WnNonLin version 6.3 from Pharsight Corportion, Cary N.C., was used for the pharmacokinetic calculation.

[3] = Body weight reduction in lean mice; assay type: in vivo, lean C57BL mice; settings: change from baseline day 1 to 7
Protocol: In order to determine the in vivo potency of the FGF21 derivatives the effect on body weight was studied in lean C57BL mice after subcutaneous (s.c.) administration. It has previously been shown that the weight loss induced by FGF21 in lean mice is predictive of the effect in obese mice and therefore lean mice are considered a good screening model.
The compounds were administered s.c. 1 mg/kg either once (QD) or twice (BID) daily in 10 mM phosphate, 2% (w/vol) glycerol, 500ppm (=0.05%) polysorbate 80, pH=8.15, (2 ml/kg) for 7 days (n=7-8). The respective vehicle treated groups (control) were treated with 10 mM phosphate, 2% (w/vol) glycerol, 500ppm (=0.05%) polysorbate 80, pH=8.15, (2 ml/kg) s.c. twice daily for 7 days (n=6-8). Body weight was measured before dosing and again after 7 days treatment.

[4] = Pharmacokinetic study in mice (i.v.); settings: terminal half-life, single intravenous dose of 20 mg/kg, lean C57bl mice
Protocol: as §6, §7, §8

[5] = Pharmacokinetic study in mini pigs (i.v.); settings: terminal half-life, female Gottingen mini pigs
Protocol: as §1, §2, §3, §4, §5

FGF receptor/BKL complex = assay: FGF receptor potency in an Erk phosphorylation assay in HEK293 overexpressing human BKL; assay type: cell-based; settings: HEK293/BKL cells, pERK after 12 minutes
Sequence of FGF receptor/BKL complex (Q86Z14 whole entry, one chain of several): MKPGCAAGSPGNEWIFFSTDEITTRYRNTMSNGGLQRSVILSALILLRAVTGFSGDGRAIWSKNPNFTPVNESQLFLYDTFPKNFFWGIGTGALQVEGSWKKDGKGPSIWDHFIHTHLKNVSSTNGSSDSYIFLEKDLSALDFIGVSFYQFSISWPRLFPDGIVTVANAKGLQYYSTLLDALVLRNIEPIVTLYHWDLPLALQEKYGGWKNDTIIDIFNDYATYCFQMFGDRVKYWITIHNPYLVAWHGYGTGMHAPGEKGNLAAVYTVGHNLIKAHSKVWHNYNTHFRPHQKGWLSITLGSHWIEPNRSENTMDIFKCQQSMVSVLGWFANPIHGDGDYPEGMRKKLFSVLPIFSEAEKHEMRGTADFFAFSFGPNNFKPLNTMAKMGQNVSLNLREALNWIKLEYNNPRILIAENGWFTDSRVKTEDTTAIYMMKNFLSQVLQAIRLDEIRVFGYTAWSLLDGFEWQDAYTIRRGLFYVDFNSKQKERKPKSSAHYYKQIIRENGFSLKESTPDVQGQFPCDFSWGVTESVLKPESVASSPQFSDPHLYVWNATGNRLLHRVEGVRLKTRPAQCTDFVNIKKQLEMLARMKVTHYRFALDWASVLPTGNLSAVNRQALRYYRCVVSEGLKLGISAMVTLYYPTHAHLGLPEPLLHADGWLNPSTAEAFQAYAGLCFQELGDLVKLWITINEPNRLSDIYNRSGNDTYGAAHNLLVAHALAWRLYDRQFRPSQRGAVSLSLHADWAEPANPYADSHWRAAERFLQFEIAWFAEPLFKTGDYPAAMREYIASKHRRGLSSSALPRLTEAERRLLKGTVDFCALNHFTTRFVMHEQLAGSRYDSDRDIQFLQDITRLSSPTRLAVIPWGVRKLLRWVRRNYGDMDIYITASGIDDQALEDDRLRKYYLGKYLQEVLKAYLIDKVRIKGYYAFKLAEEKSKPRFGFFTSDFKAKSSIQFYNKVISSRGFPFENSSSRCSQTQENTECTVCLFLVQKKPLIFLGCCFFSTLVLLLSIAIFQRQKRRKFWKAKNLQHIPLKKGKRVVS
Method in brief: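 pERK after 12 min analogue exposure at 37° C. was quantified by AlphaScreen SureFire in lysates of beta-klotho-transfected HEK293 cells. Assay medium was DMEM with 0.02% Tween20, run both without albumin and with 0.1% final HSA to probe albumin binding. Cells were starved 2 h in basal medium first. Absolute EC50 reported.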

[6] = presence of 0.1% HSA, read-out: EC50 (0.1% HSA)

| Molecule | Half-life mini pigs [1] [h] | Glucose uptake Emax (3T3-L1 adipocytes) [%] | Half-life mice [2] [h] | Mean Δ body weight (%) ([3]; s.c. 1 mg/kg BID for 7 days) | Half-life mice [4] [h] | EC50 (3T3-L1 adipocytes) [nM] | Half-life mini pigs [5] [h] | Mean Δ body weight (%) ([3]; s.c. 1 mg/kg QD for 7 days) | EC50 (FGF receptor/BKL complex; absence of HSA, read-out: EC50) [nM] | EC50 (FGF receptor/BKL complex; [6]) [nM] |
| --- | --- | --- | --- | --- | --- | --- | --- | --- | --- | --- |
| MetFGF21 (protein) MHPIPDSSPLLQFGGQVRQRYLYTDDAQQTEAHLEIREDGTVGGAADQSPESLLQLKALKPGVIQILGVKTSRFLCQRPDGALYGSLHFDPEACSFRELLLEDGYNVYQSEAHGLPLHLPGNKSPHRDPAPRGPARFLPLPGLPPALPEPPGILAPQPPDVGSSDPLSMVGPSQGRSPSYAS | 2 | 100 | 1 | −1.88** % | – | – | – | – | – | – |
| S{Beta-180}-[2-[2-[[2-[2-[2-[[2-[2-[2-[[(4S)-4-carboxy-4-(17-carboxyheptadecanoyl-amino)butanoyl]amino]ethoxy]ethoxy]acetyl]amino]ethoxy]ethoxy]acetyl]amino]-ethylamino]-2-oxoethyl]-Ala[Gln121,Leu168, … (protein) HPIPDSSPLLQFGGQVRQRYLYTDDAQQTEAHLEIREDGTVGGAADQSPESLLQLKALKPGVIQILGVKTSRFLCQRPDGALYGSLHFDPEACSFRELLLEDGYNVYQSEAHGLPLHLPGQKSPHRDPAPRGPARFLPLPGLPPALPEPPGILAPQPPDVGSSDPLSLVGPSQGRSPSYCS | – | 109 | – | – | 12 | 32 | 70 | −10.59*** % | 5 | 48 |
| S{Beta-181}-[2-[2-[[2-[2-[2-[[2-[2-[2-[[(4S)-4-carboxy-4-(13-carboxytridecanoyl-amino)butanoyl]amino]ethoxy]ethoxy]acetyl]amino]ethoxy]ethoxy]acetyl]amino]-ethylamino]-2-oxoethyl]-Ala[Gln121,Leu168,Cy … (protein) HPIPDSSPLLQFGGQVRQRYLYTDDAQQTEAHLEIREDGTVGGAADQSPESLLQLKALKPGVIQILGVKTSRFLCQRPDGALYGSLHFDPEACSFRELLLEDGYNVYQSEAHGLPLHLPGQKSPHRDPAPRGPARFLPLPGLPPALPEPPGILAPQPPDVGSSDPLSLVGPSQGRSPSYAC | – | 55 | – | −0.94% | 3 | 7.2 | 2 | – | 58 | 41 |
| S{Beta-181}-[2-[2-[[2-[2-[2-[[2-[2-[2-[[(4S)-4-carboxy-4-(15-carboxypentadecanoyl-amino)butanoyl]amino]ethoxy]ethoxy]acetyl]amino]ethoxy]ethoxy]acetyl]amino]-ethylamino]-2-oxoethyl]-Ala[Gln121,Leu168, … (protein) HPIPDSSPLLQFGGQVRQRYLYTDDAQQTEAHLEIREDGTVGGAADQSPESLLQLKALKPGVIQILGVKTSRFLCQRPDGALYGSLHFDPEACSFRELLLEDGYNVYQSEAHGLPLHLPGQKSPHRDPAPRGPARFLPLPGLPPALPEPPGILAPQPPDVGSSDPLSLVGPSQGRSPSYAC | – | 61 | – | – | 4 | 31 | 25 | 0.18% | 55 | 72 |
